Results as given in article PMC12151379 (2025).

B1: liprin-α2_CC2N (residues 300–404) (domain or fragment)
chain: EVEQEAETARKDLIKTEEMNTKYQRDIREAMAQKEDMEERITTLEKRYLSAQRESTSIHDMNDKLENELANKEAILRQMEEKNRQLQERLELAEQKLQQTMRKAE
B4: RIM1_C2B (residues 1166–1334) (domain or fragment)
chain: GPAQLVGRQTLATPAMGDIQIGMEDKKGQLEVEVIRARSLTQKPGSKSTPAPYVKVYLLENGACIAKKKTRIARKTLDPLYQQSLVFDESPQGKVLQVIVWGDYGRMDHKCFMGVAQILLEELDLSSMVIGWYKLFPPSSLVDPTLAPLTRRASQSSLESSSGPPCIRS

Legend:
Assay in all cases: ITC
[1] = biological target: T1, RIM1_C2B K1240E (Rattus norvegicus)
T1 chain: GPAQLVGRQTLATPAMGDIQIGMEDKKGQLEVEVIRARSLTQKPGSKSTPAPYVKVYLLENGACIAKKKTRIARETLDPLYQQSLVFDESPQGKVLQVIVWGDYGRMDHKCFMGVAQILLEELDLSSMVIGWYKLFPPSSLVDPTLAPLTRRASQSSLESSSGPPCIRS

[2] = biological target: T2, RIM1_C2B L1245Q (Rattus norvegicus)
T2 chain: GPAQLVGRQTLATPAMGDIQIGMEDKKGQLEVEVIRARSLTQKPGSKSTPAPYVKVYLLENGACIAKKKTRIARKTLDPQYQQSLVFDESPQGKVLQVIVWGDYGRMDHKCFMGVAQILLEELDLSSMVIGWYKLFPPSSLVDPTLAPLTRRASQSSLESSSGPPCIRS

[3] = biological target: B4
[4] = biological target: T3, RIM1_C2B R1236E (Rattus norvegicus)
T3 chain: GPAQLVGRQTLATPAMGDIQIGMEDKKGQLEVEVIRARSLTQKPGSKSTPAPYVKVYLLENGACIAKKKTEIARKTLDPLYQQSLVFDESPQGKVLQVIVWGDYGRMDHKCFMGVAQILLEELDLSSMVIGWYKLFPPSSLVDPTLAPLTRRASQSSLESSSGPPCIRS

[5] = biological target: B1
[6] = biological target: T4, liprin-α2_CC2 (residues 259–542) (human, UniProt O75334 259-542)
T4 chain: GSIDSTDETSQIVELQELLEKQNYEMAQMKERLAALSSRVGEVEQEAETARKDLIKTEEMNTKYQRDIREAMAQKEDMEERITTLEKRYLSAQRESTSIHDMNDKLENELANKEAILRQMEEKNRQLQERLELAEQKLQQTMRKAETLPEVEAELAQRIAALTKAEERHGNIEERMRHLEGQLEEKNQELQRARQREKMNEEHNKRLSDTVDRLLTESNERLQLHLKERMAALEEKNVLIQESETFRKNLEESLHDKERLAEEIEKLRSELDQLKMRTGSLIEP

[7] = biological target: T5, liprin-α2_CC2N E380R (human, UniProt O75334 300-404, E380R)
T5 sequence: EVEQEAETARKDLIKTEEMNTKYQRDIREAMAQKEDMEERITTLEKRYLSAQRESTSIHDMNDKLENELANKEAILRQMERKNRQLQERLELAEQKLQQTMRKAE

[8] = biological target: T6, liprin-α2_CC2N A350S (human, UniProt O75334 300-404, A350S)
T6 sequence: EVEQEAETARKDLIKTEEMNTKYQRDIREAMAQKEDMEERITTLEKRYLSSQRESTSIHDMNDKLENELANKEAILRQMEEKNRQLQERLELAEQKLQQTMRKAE

For B1, the Kd [1] was 25 µM, the Kd [2] was > 100 µM and the Kd [3] was 4 µM. The Kd [4] was 27 µM.

B2: liprin-α2_CC2N R383A (protein)
chain: EVEQEAETARKDLIKTEEMNTKYQRDIREAMAQKEDMEERITTLEKRYLSAQRESTSIHDMNDKLENELANKEAILRQMEEKNAQLQERLELAEQKLQQTMRKAE
B2 gave a Kd [3] of 24 µM.

B3: liprin-α2_CC2N E379R (protein)
chain: EVEQEAETARKDLIKTEEMNTKYQRDIREAMAQKEDMEERITTLEKRYLSAQRESTSIHDMNDKLENELANKEAILRQMREKNRQLQERLELAEQKLQQTMRKAE
B3 gave a Kd [3] of 23 µM.

Binder B4 has a Kd [5] of 4 µM, a Kd [6] of 5 µM and a Kd [7] of 8.2 µM. For the same binder, the Kd [8] was 5.7 µM.
